Experiment [1] has as its target T1, hiR2-FL-T522A-T7 (human, UniProt Q6PJF5 1-856).
T1 sequence: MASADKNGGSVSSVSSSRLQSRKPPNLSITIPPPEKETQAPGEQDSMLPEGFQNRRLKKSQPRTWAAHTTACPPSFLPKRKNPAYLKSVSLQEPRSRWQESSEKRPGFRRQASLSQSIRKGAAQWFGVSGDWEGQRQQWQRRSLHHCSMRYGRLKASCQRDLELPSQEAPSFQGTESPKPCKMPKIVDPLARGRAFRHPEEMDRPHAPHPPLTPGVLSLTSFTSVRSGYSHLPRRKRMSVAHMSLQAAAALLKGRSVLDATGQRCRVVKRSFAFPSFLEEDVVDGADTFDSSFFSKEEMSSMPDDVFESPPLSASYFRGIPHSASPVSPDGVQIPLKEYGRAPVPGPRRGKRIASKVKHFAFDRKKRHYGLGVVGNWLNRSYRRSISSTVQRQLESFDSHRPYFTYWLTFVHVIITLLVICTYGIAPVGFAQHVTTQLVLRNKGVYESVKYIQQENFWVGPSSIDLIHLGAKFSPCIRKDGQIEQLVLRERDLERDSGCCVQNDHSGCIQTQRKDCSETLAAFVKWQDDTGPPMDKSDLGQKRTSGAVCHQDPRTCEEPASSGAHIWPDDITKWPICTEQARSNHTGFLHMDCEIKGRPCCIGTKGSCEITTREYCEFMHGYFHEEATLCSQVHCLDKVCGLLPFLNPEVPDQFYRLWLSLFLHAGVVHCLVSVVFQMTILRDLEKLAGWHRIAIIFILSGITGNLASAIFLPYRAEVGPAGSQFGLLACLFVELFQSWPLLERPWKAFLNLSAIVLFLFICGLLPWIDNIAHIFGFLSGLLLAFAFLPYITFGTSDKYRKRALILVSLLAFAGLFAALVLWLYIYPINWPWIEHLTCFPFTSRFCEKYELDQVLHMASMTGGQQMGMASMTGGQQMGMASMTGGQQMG
As to the kind of experiment: FACS on MEF-DKO cells expressing the variant, 3 µg/ml antibody. Summed up:
(§1)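 Cells were stained with purified antibody at 3 μg/ml in FACS buffer for 1 hour on ice, with buffer-only controls. Bound antibody was detected with PE-conjugated goat anti-mouse IgG F(ab′)2 at 1:100, 1 hour on ice in the dark, followed by flow cytometry.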

The target in experiment [2] is T2, hiR2-FL-N503A-T7 (human, UniProt Q6PJF5 1-856).
T2 sequence: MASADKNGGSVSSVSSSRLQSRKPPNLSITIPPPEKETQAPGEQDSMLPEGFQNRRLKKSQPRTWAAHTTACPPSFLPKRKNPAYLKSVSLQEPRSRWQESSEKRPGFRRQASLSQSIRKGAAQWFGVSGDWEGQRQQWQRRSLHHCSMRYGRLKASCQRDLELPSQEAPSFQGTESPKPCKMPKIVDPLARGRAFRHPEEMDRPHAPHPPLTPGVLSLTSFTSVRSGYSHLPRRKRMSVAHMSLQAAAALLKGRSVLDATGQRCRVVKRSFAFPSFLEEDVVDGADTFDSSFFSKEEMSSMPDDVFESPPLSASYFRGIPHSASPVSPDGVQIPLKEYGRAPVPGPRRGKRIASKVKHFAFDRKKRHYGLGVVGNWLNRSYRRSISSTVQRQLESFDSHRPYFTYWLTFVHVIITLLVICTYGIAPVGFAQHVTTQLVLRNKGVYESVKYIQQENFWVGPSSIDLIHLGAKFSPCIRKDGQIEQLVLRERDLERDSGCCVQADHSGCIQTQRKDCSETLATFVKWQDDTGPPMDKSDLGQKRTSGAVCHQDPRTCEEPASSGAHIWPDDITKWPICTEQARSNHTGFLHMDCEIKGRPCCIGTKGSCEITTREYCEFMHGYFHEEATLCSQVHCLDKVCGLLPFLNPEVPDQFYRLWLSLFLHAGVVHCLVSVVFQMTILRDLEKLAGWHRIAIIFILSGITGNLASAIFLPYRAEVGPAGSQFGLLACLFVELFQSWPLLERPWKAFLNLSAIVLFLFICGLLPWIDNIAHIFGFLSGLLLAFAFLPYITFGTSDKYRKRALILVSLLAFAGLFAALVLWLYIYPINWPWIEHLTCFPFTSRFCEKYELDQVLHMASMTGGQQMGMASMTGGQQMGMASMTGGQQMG
The experiment is described as above. The method, boiled down:
as §1

The values below come from patent US20240287172A1 (SCIRHOM, published 2024).

B1: antibody 48 (antibody, V domains shown)
VH: QVQLQQSGTELVRPGTSVKVSCKASGYAFTNYLIEWVKQRPGQGLEWIGVINPGSGFTKYNEKFKGKATLTADKSSSTVYMHLSSLTSEDSAVYFCARGLYRAMDYWGQGTSVTVSS
VL: DIQMTQSPASQSASLGESVTITCLASQTIATWLAWYQQKPGKSPQLLIYGATTLADGVPSRFSGGGSGTKFSFKISSLQAEDFVSYYCQQLYSTPYTFGGGTKLEIK
notes: mouse IgG, kappa light chain; also called clone #48; purified antibody 48
B1: the “loss of binding vs wild type” value in experiment [1] and in experiment [2] was not below 30% each time.

B2: antibody 50 (antibody, V domains shown)
VH: QVQLQQSGAELVRPGASVKVSCKASGYAFSNYLIEWVKQRPGQGLEWIGVINPGSGFTKYNEKFKGKATLTADKSSSTAYMQLSSLTSEDSAVYFCARGLYRAMDYWGQGTSVTVSS
VL: DIQMTQSPASQSASLGESVTITCLASQTIGTWLAWYQQKPGKSPQLLIYAAASLADGVPSRFSGGGSGTKFSFKISSLQAEDFVNYYCQQIYSTPYTFGGGTKLEIK
notes: mouse IgG, kappa light chain; also called clone #50; purified antibody 50
For B2, the “loss of binding vs wild type” value in experiment [1] and in experiment [2] was not below 30% in each case.
